Laboratory results reported in paper PMC2655719 (PLoS ONE, 2009).

Legend:
Details in all cases: both partners purified
[1] = biological target: T1, H-Ras (recombinant, guanine nucleotide-loaded) (UniProt P01112 1-189); assay: ITC; 300 µM RGS14(RBD1.RBD2) titrated into 20 µM H-Ras loaded with GDP; 20°C; 20 mM HEPES pH 7.5, 150 mM NaCl, 1 mM MgCl2, 0.5 mM TCEP; single binding site model
T1 construct: H-Ras expressed from pPROEXHTb(H-Ras); Treated with calf intestinal phosphatase, EDTA, TEV protease and GPPNHP before gel filtration; used loaded with GPPNHP or with GDP (two assays); also called H-Ras(GPPNHP); H-Ras(GDP); source: E. coli BL21(DE3), purified (Ni-NTA, gel filtration)
T1 sequence (P01112 whole entry): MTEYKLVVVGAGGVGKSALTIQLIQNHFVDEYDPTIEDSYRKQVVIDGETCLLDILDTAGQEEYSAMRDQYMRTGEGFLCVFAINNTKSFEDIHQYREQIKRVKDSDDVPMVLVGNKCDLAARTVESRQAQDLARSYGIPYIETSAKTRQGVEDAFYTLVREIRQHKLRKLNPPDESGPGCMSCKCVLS

[2] = biological target: T1, H-Ras (recombinant, guanine …); assay: ITC; 300 µM RGS14(RBD1.RBD2) titrated into 20 µM H-Ras loaded with GPPNHP; 20°C; 20 mM HEPES pH 7.5, 150 mM NaCl, 1 mM MgCl2, 0.5 mM TCEP; single binding site model
[3] = biological target: T1, H-Ras (recombinant, guanine …); assay: ITC; 300 µM RGS14(RBD1.RBD2) titrated into 20 µM H-Ras loaded with GDP; 20°C; 20 mM HEPES pH 7.5, 150 mM NaCl, 1 mM MgCl2, 0.5 mM TCEP; single binding site model; remark: listed apart in the source
[4] = biological target: T1, H-Ras (recombinant, guanine …); assay: ITC; 300 µM RGS14(RBD1.RBD2) titrated into 20 µM H-Ras loaded with GPPNHP; 20°C; 20 mM HEPES pH 7.5, 150 mM NaCl, 1 mM MgCl2, 0.5 mM TCEP; single binding site model; remark: listed apart in the source

B1: RGS14(RBD1.RBD2) (domain or fragment)
chain: PGKYCCVYLPDGTASLALARPGLTIRDMLAGICEKRGLSLPDIKVYLVGNEQALVLDQDCTVLADQEVRLENRITFELELTALERVVRISAKPTKRLQEALQPILEKHGLSPLEVVLHRPGEKQPLDLGKLVSSVAAQRLVLDTLPG
Kd [1]: > 200 µM | Kd [2]: ~10 µM | Ka [3]: 23500 M⁻¹ | dH [3]: -7.1 ± 0.5 kcal/M | stoichiometry N [3]: 1.05 ± 0.06 | Ka [4]: 101000 M⁻¹ | dH [4]: -1.81 ± 0.04 kcal/M | stoichiometry N [4]: 1.03 ± 0.02
